A word on the IC50: it is the concentration that gives 50% inhibition. Higher therefore signals weaker potency.

The values that follow come from patent US20200024330A1.

Common to all, as to assay: cell-based or functional assay
The target in test [1] is HIV-1 Env of isolate MGRM-D-016 (HIV-1).
Test [2] concerns the target HIV-1 Env of isolate MGRM-AE-007 (CRF01_AE), on pseudovirus (HIV-1).
For test [3], the target named is HIV-1 JR-CSF Env L179A (HIV-1 (isolate JR-CSF)) (UniProt P20871).
Test [4] has as its target HIV-1 Env of isolate MGRM-AE-003 (CRF01_AE), on pseudovirus (HIV-1).
The target of test [5] is HIV-1 Env of isolate MGRM-F1-016 (subtype F), on pseudovirus (HIV-1).
In test [6] the target is HIV-1 Env of isolate MGRM-A-007 (clade A), on pseudovirus (HIV-1).
In test [7] the target is HIV-1 Env of isolate MGRM-AG-001 (CRF_AG), on pseudovirus (HIV-1).
Test [8] concerns the target HIV-1 Env of isolate MGRM-A-013 (clade A), on pseudovirus (HIV-1).
Test [9] has as its target HIV-1 Env of isolate TRJ04551.58 (HIV-1).
Test [10] concerns the target HIV-1 Env of isolate MGRM-G-024 (HIV-1).
Test [11] has as its target HIV-1 Env of isolate MGRM-F1-006 (subtype F), on pseudovirus (HIV-1).
The target in test [12] is HIV-1 JR-CSF Env V182A (HIV-1 (isolate JR-CSF)) (UniProt P20871).
Test [13] addresses HIV-1 JR-CSF Env V120A (HIV-1 (isolate JR-CSF)) (UniProt P20871).
Test [14] has as its target HIV-1 JR-CSF Env L125A (HIV-1 (isolate JR-CSF)) (UniProt P20871).
The target of test [15] is HIV-1 Env of isolate 93TH305 (pseudovirus) (HIV-1 isolate 93TH305, subtype B).
The target in test [16] is HIV-1 Env of isolate MGRM-C-024 (HIV-1).
For test [17], the target named is HIV-1 Env of isolate MGRM-AG-011 (CRF_AG), on pseudovirus (HIV-1).
Test [18] has as its target HIV-1 Env of isolate MGRM-C-010 (HIV-1).
The target of test [19] is HIV-1 Env of isolate MGRM-AG-005 (CRF_AG), on pseudovirus (HIV-1).
Test [20] concerns the target HIV-1 Env of isolate JRCSF (HIV-1) (UniProt P20871).
Test [21] has as its target HIV-1 MGRM-D-018 envelope glycoprotein (Env) on pseudovirus (HIV-1).
Test [22] addresses HIV-1 Env of isolate MG RM-D-029 (subtype D) (HIV-1).
Test [23] concerns the target HIV-1 Env of isolate MGRM-C-004 (pseudovirus) (HIV-1 isolate MGRM-C-004, subtype C).
For test [24], the target named is HIV-1 Env of isolate MG RM-D-011 (subtype D) (HIV-1).
Test [25] addresses aMLV envelope on pseudovirus (negative control virus).
For test [26], the target named is HIV-1 Env of isolate MGRM-F1-006 (subtype F) (HIV-1).
Test [27] has as its target HIV-1 MGRM-Chronic-B-011 Env (pseudovirus) (HIV-1).
Test [28] concerns the target HIV-1 Env of isolate MG RM-D-028 (subtype D) (HIV-1).

Chain of 5345_I01 (PGT-137) (antibody) (VH): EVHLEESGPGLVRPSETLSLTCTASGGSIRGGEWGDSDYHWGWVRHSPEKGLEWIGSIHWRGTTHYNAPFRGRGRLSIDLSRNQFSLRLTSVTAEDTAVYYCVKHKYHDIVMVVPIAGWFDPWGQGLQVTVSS
Chain of 5345_I01 (PGT-137) (antibody) (VL): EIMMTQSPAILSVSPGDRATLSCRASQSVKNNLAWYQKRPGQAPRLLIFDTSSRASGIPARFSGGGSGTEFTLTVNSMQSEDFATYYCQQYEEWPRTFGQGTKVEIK
Chain of 5329_C19 (PGT-136) (antibody) (VH): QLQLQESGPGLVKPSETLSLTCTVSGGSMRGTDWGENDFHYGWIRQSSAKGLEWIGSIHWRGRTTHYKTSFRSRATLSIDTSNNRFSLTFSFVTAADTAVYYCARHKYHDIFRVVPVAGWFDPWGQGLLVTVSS
Chain of 5329_C19 (PGT-136) (antibody) (VL): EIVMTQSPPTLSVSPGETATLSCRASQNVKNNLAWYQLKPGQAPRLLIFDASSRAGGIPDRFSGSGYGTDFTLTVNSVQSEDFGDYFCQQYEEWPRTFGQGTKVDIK

For 5114_A19 (PGT-128) (antibody), the IC50 was above 50 µg/mL in test [1]; 0.019 µg/mL in [9]; above 50 µg/mL in test [16]; above 50 µg/mL in [18]; 0.003 µg/mL in test [20]. In addition, the IC50, single-round pseudovirus neutralization was above 50 µg/mL in test [2]; 0.18 µg/mL in test [4]; above 50 µg/mL in test [6]; 4.73 µg/mL in test [7]; 0.008 µg/mL in [8]; 3.93 µg/mL in test [17]. The substance further returned an IC50, single-round pseudovirus neutralization in test [19] of 0.037 µg/mL. The Fold IC50 increase relative to wild-type was 2.8 fold in test [3], 1.2 fold in [12], 1.4 fold in test [13] and 2.9 fold in test [14]. Besides, the values for the IC50, pseudovirus neutralization in test [5], in test [10] and in [11] were 1.21 µg/mL, 0.095 µg/mL and 0.763 µg/mL, respectively. Also, the IC50 (µg/mL) neutralization in test [15] was 0.006 µg/mL.

Consider 5123_A06 (PGT-125) (antibody), for which the IC50 (ug/ml), neutralizing activity is 0.0382 µg/mL in test [21] and above 10 µg/mL in test [25]. Also, the neutralization IC50 in test [21] amounted to 0.0382 µg/mL. Besides, the neutralization IC80 in [21] is 0.144 µg/mL. For the same substance, the neutralization IC90 in [21] came out at 0.339 µg/mL. The neutralization IC95 in test [21] stood at 0.892 µg/mL. For the same substance, the IC50 (µg/mL), pseudovirus neutralization in test [22] is above 50 µg/mL; in test [24], 0.008 µg/mL; in test [26], 0.035 µg/mL; in test [28], above 50 µg/mL. Besides, the Fold IC50 increase relative to wild-type came out at 1.3 fold in test [3], 1.3 fold in test [12], 0.5 fold in test [13] and 1.6 fold in [14]. In [23], this substance showed an IC50 (µg/mL) neutralization of 1.82 µg/mL. Also, the IC50, pseudovirus neutralization in test [27] is 3.23 µg/mL; in test [10] it was above 50 µg/mL.

For the substance 5136_H01 (PGT-131) (antibody), the IC50 was above 50 µg/mL in [1]; 0.088 µg/mL in test [9]; above 50 µg/mL in test [16]; above 50 µg/mL in test [18]; 0.029 µg/mL in [20]. Further, the IC50, single-round pseudovirus neutralization was 0.026 µg/mL in [2]; 1.41 µg/mL in test [4]; above 50 µg/mL in test [6]; above 50 µg/mL in test [7]; above 50 µg/mL in test [8]; above 50 µg/mL in [17]. For the same substance, in [19], the IC50, single-round pseudovirus neutralization came out at 1.04 µg/mL. Moreover, the Fold IC50 increase relative to wild-type in [3] was 4.8 fold; in [12] it was 1.1 fold; in test [13] it was 0.7 fold; in test [14] it was 2.5 fold. Also, the IC50, pseudovirus neutralization in [5] was above 50 µg/mL; in [10] it was 10.7 µg/mL; in test [11], above 50 µg/mL. In test [15], the IC50 (µg/mL) neutralization was determined as 0.016 µg/mL.

Take 5141_B17 (PGT-126) (antibody): the IC50 (ug/ml), neutralizing activity in test [21] is 0.0093 µg/mL; in test [25], above 10 µg/mL. Further, the IC50 (µg/mL), pseudovirus neutralization in test [22] was above 50 µg/mL; in test [24], 0.009 µg/mL; in test [26] it was 0.078 µg/mL; in [28], above 50 µg/mL. Moreover, the Fold IC50 increase relative to wild-type came to 2.6 fold in test [3], 1.4 fold in [12], 0.7 fold in test [13] and 1.2 fold in test [14]. The same substance returned an IC50 (µg/mL) neutralization in [23] of 0.033 µg/mL. The IC50, pseudovirus neutralization in test [27] was 0.108 µg/mL; in [10], above 50 µg/mL.

Turning to 5147_N06 (PGT-130) (antibody), the IC50 (ug/ml), neutralizing activity is 0.0378 µg/mL in test [21] and above 10 µg/mL in test [25]. In addition, the IC50 in test [1] was above 50 µg/mL; in [9], 0.023 µg/mL; in test [16], above 50 µg/mL; in [18], above 50 µg/mL; in test [20], 0.01 µg/mL. The IC50, single-round pseudovirus neutralization in test [2] was 0.083 µg/mL; in [4], 0.337 µg/mL; in test [6] it was above 50 µg/mL; in [7], above 50 µg/mL; in [8], above 50 µg/mL; in [17], above 50 µg/mL. Further, in [19], the IC50, single-round pseudovirus neutralization was 0.54 µg/mL. In addition, the Fold IC50 increase relative to wild-type in [3] was 2.4 fold; in test [12] it was 1.2 fold; in [13], 0.8 fold; in [14] it was 2.5 fold. For the same substance, the IC50, pseudovirus neutralization in test [5] is above 50 µg/mL; in test [10], 5.84 µg/mL; in [11] it was above 50 µg/mL. The same substance yielded an IC50 (µg/mL) neutralization in [15] of 0.021 µg/mL.

Take 5329_C19 (PGT-136) (antibody): the IC50 in test [1], in test [9], in test [16], in test [18] and in [20] was above 50 µg/mL in each case. Further, the IC50, single-round pseudovirus neutralization in test [2], in [4], in test [6], in test [7], in [8] and in test [17] was above 50 µg/mL in each case. For the same substance, the IC50, single-round pseudovirus neutralization in test [19] is above 50 µg/mL. Further, the values for the IC50, pseudovirus neutralization in test [5], in test [10] and in [11] were above 50 µg/mL, 0.152 µg/mL and above 50 µg/mL, respectively. Further, the IC50 (µg/mL) neutralization in test [15] came out at 20.2 µg/mL.

Consider 5343_B08 (PGT-135) (antibody), for which the IC50 in test [1] is above 50 µg/mL; in test [9] it was above 50 µg/mL; in [16] it was above 50 µg/mL; in test [18] it was above 50 µg/mL; in test [20], 0.131 µg/mL. In addition, the IC50, single-round pseudovirus neutralization in [2], in [4], in test [6], in test [7], in [8] and in test [17] was above 50 µg/mL throughout. Moreover, in test [19], the IC50, single-round pseudovirus neutralization is above 50 µg/mL. Besides, the Fold IC50 increase relative to wild-type in [3] was determined as 1.2 fold; in test [12], 1.5 fold; in test [13], 1.4 fold; in [14], 0.9 fold. For the same substance, the IC50, pseudovirus neutralization in test [5] is above 50 µg/mL; in test [10], 0.062 µg/mL; in test [11] it was above 50 µg/mL. The IC50 (µg/mL) neutralization in [15] is above 50 µg/mL.

Consider 5345_I01 (PGT-137) (antibody), for which the IC50 in test [1], in [9], in test [16], in test [18] and in test [20] was above 50 µg/mL each time. The IC50, single-round pseudovirus neutralization is above 50 µg/mL in test [2]; above 50 µg/mL in test [4]; above 50 µg/mL in test [6]; above 50 µg/mL in test [7]; 49.2 µg/mL in test [8]; above 50 µg/mL in [17]. The substance further showed an IC50, single-round pseudovirus neutralization in test [19] above 50 µg/mL. Further, the IC50, pseudovirus neutralization in [5] was above 50 µg/mL; in test [10], 0.051 µg/mL; in [11], above 50 µg/mL. Also, the IC50 (µg/mL) neutralization in [15] was above 50 µg/mL.
